Data from the RNAGym collection of RNA variant scans (doi:10.7554/elife.80360).

B1: HDV Ribozyme (parent)
chain: GGCCGGCAUGGUCCCAGCCUCCUCGCUGGCGCCGGCUGGGCAACAUUCCGAGGGGACCGUCCCCUCGGUAAUGGCGAAUGGGACCCA

Variants of: B1
Assay: self-cleavage, relative activity (ratio to wild type); higher = more cleavage; co-transcriptional

Row | Variant | self-cleavage
1 | C14G G80U | 0.261
2 | C13A U20A | 0.0811
3 | C13A U20G | 0.0594
4 | C14G U69G | 0.604
5 | C14G A78U | 0.185
6 | C14G G59A | 0.962
7 | C13U C84U | 0.361
8 | C13U C36G | 0.0723
9 | C13U C36A | 0.132
10 | C14G U79C | 0.173
11 | C13G C21A | 0
12 | C14G C21G | 0.0449
13 | C14G A42C | 0.0923
14 | C14G C62G | 0.0831
15 | C14U G59C | 1.01
16 | C14A C22G | 0.0573
17 | C13A C22U | 0.0583
18 | C13U C21U | 0.0563
19 | C13U C64U | 0.554
20 | C14A U27A | 0.739
21 | C14U C21G | 0.125
22 | C13G C44G | 0
23 | C14U C30A | 0.675
24 | C14U C30U | 0.489

Row | Variant | self-cleavage
25 | C14U G67A | 1.09
26 | C14G G38A | 0.0831
27 | C15A A45C | 0.151
28 | C15A A45G | 0.8
29 | C13G A56G | 0.0536
30 | C13A C75U | 0.163
31 | C13A G52C | 0.383
32 | C13A G52A | 0.229
33 | C13U C86U | 1.1
34 | C13A U69G | 0.314
35 | C13G G76C | 0.217
36 | C14A A71C | 0.166
37 | C13A G76C | 0.386
38 | C13G C36G | 0.158
39 | C13G A45C | 0.0639
40 | C13A C57U | 0.175
41 | C14G G28U | 0.107
42 | C13A C19A | 0.0302
43 | C13A C19G | 0.102
44 | C13A C19U | 0.119
45 | C13G C85A | 0
46 | C13G C85U | 0
47 | C15A A77G | 0.485
48 | C15A A77C | 0.0978

Row | Variant | self-cleavage
49 | C13U A42U | 0.125
50 | C13U A42C | 0.0831
51 | C13U C48U | 0.642
52 | C13A U46G | 0.0594
53 | C14U C15U | 0.665
54 | C14A C58A | 1.17
55 | C13U G29C | 0.0332
56 | C13U G29A | 0.104
57 | C14U U46A | 0.554
58 | C15A C19G | 0.0519
59 | C15A C19U | 0.089
60 | C13A C64A | 0.264
61 | C13A A77U | 0.0739
62 | C13G G40C | 0.0396
63 | C14A U69A | 0.997
64 | C15A A56G | 0.587
65 | C13A C48U | 0.284
66 | C14G U47A | 0
67 | C13U G81A | 0.189
68 | C13U C18U | 0.295
69 | C13U C18G | 0.0332
70 | C13A U65C | 0.203
71 | C13U G74A | 0.131
72 | C13U G74U | 0.0852

Row | Variant | self-cleavage
73 | C14G A51G | 0.475
74 | C13A C21G | 0.0332
75 | C14U G28U | 0.285
76 | C13U C57A | 0.831
77 | C14U G74U | 0.733
78 | C13G G39U | 0.0361
79 | C13G G39C | 0.0462
80 | C13A A87G | 0.187
81 | C14G A16C | 0.0875
82 | C14G A16U | 0.791
83 | C14A A70C | 0.467
84 | C13A C49G | 0.0326
85 | C13A C49U | 0.119
86 | C13A G54U | 0.188
87 | C13U C24U | 0.262
88 | C13U C22A | 0.124
89 | C13U C22G | 0.0831
90 | C14U G80C | 0.314
91 | C14U G80U | 0.4
92 | C14G A45U | 0.237
93 | C14A G74C | 0.185
94 | C14A C61G | 0.997
95 | C13A U79G | 0.151
96 | C14A A45G | 0.703

Row | Variant | self-cleavage
97 | C13U C19A | 0.138
98 | C13U C19U | 0.0475
99 | C13A G82U | 0.904
100 | C14A C19A | 0.0639
101 | C13G C15G | 0.122
102 | C14A G53C | 0.665
103 | C14G C86U | 1.07
104 | C14A U60C | 0.485
105 | C14A U60G | 0.684
106 | C13G C30A | 0.0978
107 | C13G C30U | 0.26
108 | C13G C30G | 0.0426
109 | C14U A45G | 0.988
110 | C13A G29U | 0.0782
111 | C15A A43G | 0.323
112 | C15A A43C | 0.0554
113 | C13A C61U | 0.185
114 | C13U C49A | 0.727
115 | C14U A16G | 1.21
116 | C14G U37C | 0.646
117 | C14G U37A | 0.0489
118 | C13U C30G | 0.198
119 | C13U C30U | 0.261
120 | C14A U65C | 0.864

Row | Variant | self-cleavage
121 | C14G G81C | 0.974
122 | C14G G81A | 0.957
123 | C14U C85G | 0.712
124 | C14U C85U | 0.831
125 | C13G A87U | 0.0911
126 | C14A A87C | 0.643
127 | C13G C41U | 0
128 | C13G C24G | 0
129 | C13G A43U | 0.0923
130 | C13G A43C | 0.262
131 | C14G A43G | 0.0978
132 | C13G A78C | 0.0811
133 | C14U G40C | 0.391
134 | C13G U37C | 0.237
135 | C13U G54C | 0.623
136 | C13U G54U | 0.578
137 | C13U U46G | 0.356
138 | C13U U27A | 1.29
139 | C13G C84U | 0.095
140 | C14G C30G | 0.0692
141 | C13G G34U | 0.136
142 | C13A A78U | 0.0449
143 | C14U C36U | 0.96
144 | C13U C58U | 0.403

Row | Variant | self-cleavage
145 | C14A C84A | 0.458
146 | C14A C84U | 0.262
147 | C14G C18U | 0.115
148 | C14G C18A | 0.17
149 | C14G C75A | 0.111
150 | C14A C49A | 0.782
151 | C14U G82A | 0.323
152 | C13U A71C | 0.639
153 | C13G G67A | 0.138
154 | C14U C75A | 0.208
155 | C14U U79C | 0.259
156 | C13A G35C | 0.0339
157 | C15A A71U | 0.802
158 | C14G C26A | 0.639
159 | C14G C26G | 0.692
160 | C13G C33A | 0.0978
161 | C13A C58U | 0.415
162 | C14A G54A | 0.751
163 | C14U G35A | 0.631
164 | C13U G68U | 0.614
165 | C13U G68C | 0.511
166 | C13G G31U | 0.0405
167 | C14A C64U | 0.743
